In test [1] the target is mf CTLA-4 extracellular domain (aa 1-161) fused to the trans-membrane and cytoplasmic domain of hCD300a (aa 181-299), on Jurkat/NFAT-Luc cells (Macaca fascicularis; human) (UniProt G7PL88). Nature of the test: ECL cell binding, Jurkat/NFAT-Luc/mfCTLA-4-hCD300a cells.
Test [2] shares this target. Briefly: cell-based or functional assay.
Test [3] deals with human CTLA-4 (amino acids M1-N223) on stably transfected VI-fibroblast cells (human) (UniProt P16410). Briefly: ECL cell binding, VI-fibroblast/hCTLA-4 cells.
Chain of human CTLA-4 (amino acids M1-N223) on stably transfected VI-fibroblast cells (human) (P16410 36-223 limits assumed): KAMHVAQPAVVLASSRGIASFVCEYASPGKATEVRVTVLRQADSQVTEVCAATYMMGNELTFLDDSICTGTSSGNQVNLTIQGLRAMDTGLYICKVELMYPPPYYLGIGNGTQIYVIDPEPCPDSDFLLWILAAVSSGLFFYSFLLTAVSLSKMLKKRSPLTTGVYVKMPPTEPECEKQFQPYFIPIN

The term EC50 denotes the concentration giving half of the maximal effect. A high value points to a need for much substance.

Chain of mf CTLA-4 extracellular domain (aa 1-161) fused to the trans-membrane and cytoplasmic domain of hCD300a (aa 181-299), on Jurkat/NFAT-Luc cells (Macaca fascicularis; human) (Q9UGN4 other isoform, or with tags, fused parts or gaps, form in doubt): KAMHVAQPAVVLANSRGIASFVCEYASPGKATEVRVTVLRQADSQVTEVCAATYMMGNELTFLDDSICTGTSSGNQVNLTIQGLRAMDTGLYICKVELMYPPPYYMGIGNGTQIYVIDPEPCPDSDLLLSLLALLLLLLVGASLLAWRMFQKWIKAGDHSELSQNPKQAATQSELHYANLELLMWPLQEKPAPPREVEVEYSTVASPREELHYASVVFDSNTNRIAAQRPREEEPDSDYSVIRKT

B1: H1H19303P (antibody, human IgG1, kappa, V domains shown)
VH: EVQLVESGGGLVQPGGSLRLSCAASGFTFSNYEMSWVRQAPGKGLEWVSSIRTSGTTKYYADSMKGRFTISRDNAKNSLYLQMNSLRAEDTAVYYCAGGGTFLHYWGQGTLVTVSS
VL: DIQMTQSPSSVSASVGDRVTITCRASQGIASYLAWYQQKPGKAPKLLIYAASSLQTGVPSRFSGSGYGTDFTLTISSLQPEDFATYYCQQAKSFPMYTFGQGTKLEIKR
In the case of B1, the EC50 in test [1] amounted to 0.11 nM. In test [2], this molecule registered an EC50, T-cell/APC IL-2 release assay, APC HEK293/hCD20/hCD86 of 40.9 nM; an EC50, T-cell/APC NFAT-luciferase assay, +Fc Block of 1.77 nM; an EC50, T-cell/APC NFAT-luciferase assay, -Fc Block of 1.28 nM; a Fold induction of IL-2 at 100 nM, APC HEK293/hCD20/hCD86 of 4.4 fold.

B2: H1H19313P (antibody, human IgG1, V domains shown)
VH: QITLKESGPTLVKPTQTLTLTCTFSGFSLSTSGVGVGWIRQPPGVALEWLALIYWNDDKRFSPSLKSRLTITKDTSKNQVVLTMTNMDPVDTATYYCAHRRLGLYYFDYWGQGTLVTVSS
VL: DIQLTQSPSFLSASVGDRVTITCWASQGISSYLAWYQQKPGKAPKLLIYAASTLQSGVPSRFSGSGSGTEFTLTISSLQPEDFATYYCQQVHIYPFTFGPGTKVDIK
B2: the 50% effective concentration (EC50) in test [1] is 0.14 nM. Further, in test [2], the EC50, T-cell/APC IL-2 release assay, APC HEK293/hCD20/hCD86 worked out at 21.9 nM; the EC50, T-cell/APC NFAT-luciferase assay, +Fc Block amounted to 1.84 nM; the EC50, T-cell/APC NFAT-luciferase assay, -Fc Block was determined as 1.34 nM; the Fold induction of IL-2 at 100 nM, APC HEK293/hCD20/hCD86 is 6.1 fold.

B3: H1H19264P (antibody, human IgG1, V domains shown)
VH: QVQLVQSGAEVKKPGASVKVSCKASDYTFTSYGISWVRQAPGQGLEWMGWISVYNGNINYAQKFKGRVTMTTDTSTSTAYMELRSLRSDDMAVYYCARVTQFGMDVWGQGTTVTVSS
VL: DIQMTQSPSSLSASVGDRVTITCRASQSISSNLNWYQQNPGKAPKLLIYTTSSLQGGVPSRFSGSGSGTDFTLTISSLQPEDFATYYCQQSFRTPFTFGPGTKVDIK
With B3, in test [3], the ratio of RLU signal to parental VI-fibroblast at 0.4 nM Ab was 1.

B4: H1H19273P (antibody, human IgG1, V domains shown)
VH: QITLKESGPTLVKPTQTLTLTCTFSGFSLSTSGVGVGWIRQSPGRALEWLALIYWNDHERYSPSLKSRLTITKDTSKNLVVLAMANMDPVDTATYFCAHRNIEYRRSYFFDYWGQGTLVTVSS
VL: DIQMTQSPSSVSASVRDRVTVTCRASQDINNWLAWYQQKPGKAPKLLIYAASSLQSGVPSRFSGSGSGTDFTLTISSLQPEDFATYYCQQANTFPFTFGPGTKVDIK
Molecule B4 gave an EC50 in test [1] of 0.22 nM. In test [2], the EC50, T-cell/APC IL-2 release assay, APC HEK293/hCD20/hCD86 amounted to 11.4 nM; the EC50, T-cell/APC NFAT-luciferase assay, +Fc Block amounted to 1.83 nM; the EC50, T-cell/APC NFAT-luciferase assay, -Fc Block came out at 3.05 nM; the Fold induction of IL-2 at 100 nM, APC HEK293/hCD20/hCD86 came out at 6.5 fold.

These data come from patent US20210040232A1.
